From the DeepSol protein solubility set

Assay: soluble on expression in E. coli; label from the status in PepcDB or PDB records

Sequence | soluble on expression in E. coli
MSLSIFSHFQERFEATRQEEYSLQEYLDLCKQDKTAYASAAERLLMAIGEPELLDTSVDSRLSRIFSNKVIRRYPAFADFHGMEECIDQIVAFFRHAAQGLEEKKQILYLLGPVGGGKSSLAEKLKQLMEKVPFYAIKGSPVFESPLGLFNPDEDGAILEEDYGIPRRYLRSIMSPWATKRLNEFGGDISQFRVVKLYPSILNQIAIAKTEPGDENNQDISALVGKVDIRKLEEYPQNDADAYSYSGALCRANQGLMEFVEMFKAPIKVLHPLLTATQEGNYNSTEGLGALPYSGIILAHSNESEWHSFRNNKNNEAFIDRIYIVKVPYCLRVADEIKIYDKLLVNSSLAHAHCAPDTLKMLSQFSVLSRLKEPENSNIYSKMRVYDGENLKDTDPKAKSIQEYRDSAGVDEGMAGLSTRFAFKILSKVFNFDPHEVAANPVHLLYVLEQQIEQEQFQPETRERYLRFIKEYLAPRYVEFIGKEIQTAYLESYSEYGQNIFDRYVLYADFWIQDQEYRDPETGEILNRAALNEELEKIEKPAGISNPKDFRNEIVNFVLRARAGNNGKNPSWLSYEKLRVVIEKKMFSNTEDLLPVISFNAKASKEDQQKHNDFVKRMVERGYTEKQVRLLSEWYMRVRKSQEGHHHHHH | soluble
MTAQLQSESTSKIVLVTGGAGYIGSHTVVELIENGYDCVVADNLSNSTYDSVARLEVLTKHHIPFYEVDLCDRKGLEKVFKEYKIDSVIHFAGLKAVGESTQIPLRYYHNNILGTVVLLELMQQYNVSKFVFSSSATVYGDATRFPNMIPIPEECPLGPTNPYGHTKYAIENILNDLYNSDKKSWKFAILRYFNPIGAHPSGLIGEDPLGIPNNLLPYMAQVAVGRREKLYIFGDDYDSRDGTPIRDYIHVVDLAKGHIAALQYLEAYNENEGLCREWNLGSGKGSTVFEVYHAFCKASGIDLPYKVTGRRAGDVLNLTAKPDRAKRELKWQTELQVEDSCKDLWKWTTENPFGYQLRGVEARFSAEDMRYDARFVTIGAGTRFQATFANLGASIVDLKVNGQSVVLGYENEEGYLNPDSAYIGATIGRYANRISKGKFSLCNKDYQLTVNNGVNANHSSIGSFHRKRFLGPIIQNPSKDVFTAEYMLIDNEKDTEFPGDLLVTIQYTVNVAQKSLEIVYKGKLTAGEATPINLTNHSYFNLNKPYGDTIEGTEIMVRSKKSVDVDKNMIPTGNIVDREIATFNSTKPTVLGPKNPQFDCCFVVDENAKPSQINTLNNELTLIVKAFHPDSNITLEVLSTEPTYQFYTGDFLSAGYEARQGFAIEPGRYIDAINQENWKDCVTLKNGETYGSKIVYRFS | soluble
MGSDKIHHHHHHMMFLPEQISKLNELETLVFDFIIKSPEEVQQMTIRDLASQAHVSTSTIVRLCTKLGFEGWSDLKFYLKNQLKEKTPEEQHYDNMLEFNMFLRRMNTDNYQAKLNNAAQMIAKADYTVFLGLGTSGSLSEYATKYFVNTGLRSFVISDPFQAVQVQGMGNVVAVIMSVSGETEQVVNKELEFKAGGAKIISITNNEDCTVAKLADYQLSYNLVNEWSKQYPLGNLTTQLPVLAILEILAHKSIDYHLKK | not soluble
MSTDIDCIVIGAGVVGLAIARALAAGGHEVLVAEAAEGIGTGTSSRNSEVIHAGIYYPADSLKARLCVRGKHLLYEYCAARGVPHQRLGKLIVATSDAEASQLDSIARRAGANGVDDLQHIDGAAARRLEPALHCTAALVSPSTGIVDSHALMLAYQGDAENDGAQLVFHTPLIAGRVRPEGGFELDFGGAEPMTLSCRVLINAAGLHAPGLARRIEGIPQDSIPPEYLCKGSYFTLAGRAPFSRLIYPVPQHAGLGVHLTLELGGQAKFGPDTEWITTEDYTLDPRRADVFYAAVRSYWPALPDGALAPGYTGIRPKISGPHEPAADFAIAGPASHGVAGLVNLYGIKSPGLTASLAIAEETLARLAALEHHHHHH | not soluble
MEKYIHSVEDYHRLISYLENNLNYEDSVVNHVIYVIAKTGMRYGEIIGLTNNDTSLDEHYLHTYKRYNTSTWKWTNAKNESSKRYIPIDDKIVAALSNMIKERERINSLLRIKNKEEFLFFHYGLEHGIPSVATVNKALKKILKKLDIEPIITTKGLRHTYGSYLLHNNIDMGVVARILGHKDIQMLIQVYGHTLTEKIDKEFKEVEQIMNRILEHHHHHH | not soluble
GPGSMPKSKRAKIVPLTKTQAKTREDKDKLIERIREALEDYSDVYTFQLHNIRTNILQQIREERAGDSRIFLGNNKVMMIAIGRDEESAQRQNLHKLSPFLTGLCGLLFTNLSKKEVKEYFATVGAPVYARTGQTATESLVLKGGPLPQFPHSMFDHLAKLGLPIKLDRGVIVLLQDTTVCEPGDTLSAEAAQLLKLFGVQSAKFKMDLTAHWTSGVAKKVSSSASKRSEK | soluble
